The text below walks through data of US9707290.

As usually defined, the Kd is the concentration at which binding is half-saturated.

The chains are these.
B1: 10E8_T117v2-1_RSF1 (designed binder)
chain: NAMAGIVFRKHYVRHLGKTVTQNEIIRALAAPLISDGMVVKDFADHVIKREEQNPTGLPVQPVGVAIPHTDSKYVYYNAISVGILQEPVAFEDAGGDGRPVPVRVVFMLALGNWFDITNVLWWIKAVIQDDEFMKRLLYMTDDKIYESIRKRIYDLE
B2: 10E8_T117v2-1 (designed binder)
chain: NAMQGIHFRRHYVRHLPKEVSQNDIIKALASPLINDGMVVSDFADHVITREQNFPTGLPVEPVGVAIPHTDSKYVRQNAISVGILAEPVNFEDAGGEPDPVPVRVVFMLALGNWFDITNVLWWIKAVIQDEDFMQQLLVMNDDEIYQSIYTRISELEHHHHHH
B3: 10E8_T117v2-5 (designed binder)
chain: B2 chain with N119Q
B4: 10E8_T117v2-4 (designed binder)
chain: B2 chain with T118S, N119R
B5: 10E8_T117v2-3 (designed binder)
chain: B2 chain with N113S, D116N, T118S, K125R
B6: 10E8_T117v2-2 (designed binder)
chain: B2 chain with D116S, N119K
B7: 10E8_T117v2-1_g28_g91012 (designed binder)
chain: NAMQGIHFRRHYVRHLPKNVSQNDIIKALASPLINDGMVVSDFADHVITRENNSPTGLPVEPVGVAIPHTDSKYVNQSAISVGILAEPVNFEDANGTPDPVPVRVVFMLALGNWFDITNVLWWIKAVIQDEDFMQQLLNMSDDEIYQSIYTRISE
modifications: added N-linked glycosylation sites (glycan-masked)
B8: 10E8_T93v2RT12-1 (designed binder)
chain: GKADEVREKARRRMEQAVEEFKRRLRQFEEKVKQKEPRDDEINRWIDIVKKKADEAKKRVEEVGDQAADEAAQLGNDPNVNWFDITNVLWDVKKLTEKAINDIDDALKKMKDWLESGLEHHHHHH
B9: 10E8_T93v2RT12-4 (designed binder)
chain: B8 chain with T86S, N87R
B10: 10E8_T93v2RT12-5 (designed binder)
chain: B8 chain with N87Q
B11: 10E8_T93v2RT12-3 (designed binder)
chain: B8 chain with N81S, D84N, T86S, K93R
B12: 4E10_T117 (designed binder)
chain: HHHHHHNAMQGIHFRRHYVRHLPKEVSQNDIIKALASPLINDGMVVSDFADHVITREQNFPTGLPVEPVGVAIPHTDSKYVRQNAISVGILAEPVNFEDAGGEPDPVPVRVVFMLALGNWFDITNVLWWIMDVIQDEDFMQQLLVMNDDEIYQSIYTRISE
B13: 4E10_T298 (designed binder)
chain: GHHHHHHGSEVSQNDIIKALASPLINDGMVVSDFADHVITREQNAPTGLPVEPVGVAIPHTDSKYVRQNAISVGILAEPVNFEDAGGEPDPVPVRVVFMLALGNWFDITNVLWWIMDVIQDADFMQQLLVMNDDEIYQSIYTRISEAAGMAGIHFRRHYVRHLPLEHHHHHH
B14: 10E8_T298v2 (designed binder)
chain: GSEVSQNDIIKALASPLINDGMVVSDFADHVITREQNAPTGLPVEPVGVAIPHTDSKYVRQNAISVGILAEPVNFEDAGGEPDPVPVRVVFMLALGNWFDITNVLWWIKAVIQDADFMQQLLRMNDDEIYQSIYTRISEAAGMAGIHFRRHYVRHLGLEHHHHHH

Substitutions are numbered along the chain they refer to.

The first assay addresses 10E8 antibody. As to the kind of experiment: SPR. In general terms: Surface plasmon resonance follows binding to a sensor surface in real time, without labels.
On to B1, for which the dissociation constant Kd was determined as 0.05 nM.

In turn, B2 showed a Kd of 0.082 nM.

The molecule B3 yielded a Kd of 0.155 nM.

B4 displayed a Kd of 0.59 nM.

In turn, B5 displayed an equilibrium dissociation constant (Kd) of 0.925 nM.

On to B6, for which the dissociation constant Kd worked out at 1.3 nM.

B7 yielded a Kd of 0.18 nM.

For the molecule B8, the Kd was 0.04 nM.

For the molecule B9, the Kd worked out at 2.7 nM.

Molecule B10 gave an equilibrium dissociation constant (Kd) of 0.022 nM.

The molecule B11 had a dissociation constant (Kd) of 0.11 nM.

The target of another assay is 4E10 antibody. Briefly: SPR.
The molecule B1 came in with an equilibrium dissociation constant (Kd) of 0.1 nM.

For the molecule B2, the Kd was 0.168 nM.

Consider B4, for which the Kd turned out to be 3.9 nM.

Turning to B5, the Kd amounted to 0.526 nM.

Turning to B6, the dissociation constant (Kd) came out at 0.0538 nM.

For B7, the Kd turned out to be 0.49 nM.

Take B8: the dissociation constant Kd turned out to be 0.018 nM.

As to B11, the Kd amounted to 0.58 nM.

The target in a further assay is germline 10E8 (predicted germline precursor to 10E8). Briefly: SPR.
In the case of B2, the equilibrium dissociation constant (Kd) was 6000 nM.

As to B4, the Kd was 8000 nM.

For the molecule B5, the equilibrium dissociation constant (Kd) was 8000 nM.

For B8, the dissociation constant (Kd) is 290000 to 720000 nM.

In a further assay the target is germline 4E10. As to the kind of experiment: SPR.
Turning to B1, the Kd turned out to be 0.1 nM.

B2: the Kd was 0.187 nM.

B4: the dissociation constant Kd was 3.2 nM.

B7 showed a dissociation constant Kd of 0.5 nM.

The target in the next assay is 10E8 antibody. As to the kind of experiment: SPR. The source holds these as a separate data set.
Take B12: the dissociation constant (Kd) stood at 3 nM.

Regarding B13, the equilibrium dissociation constant (Kd) is 3 nM.

For a further assay, the target named is germline 10E8 (predicted germline precursor to 10E8). Briefly: SPR. The source holds these as a separate data set.
As for B2, the equilibrium dissociation constant (Kd) was 30000 nM.

With B14, the Kd was 105000 nM.

A further assay addresses 10E8 antibody. As to the kind of experiment: SPR; reference 10E8_T117v2.
For the molecule B12, the factor weaker than the corresponding 10E8 scaffold was 30 fold.

The target of the next assay is 10E8 antibody. Briefly: SPR; reference 10E8_T298v2.
As for B13, the factor weaker than the corresponding 10E8 scaffold stood at 30 fold.

The target of another assay is 10E8 antibody. As to the kind of experiment: SPR, antibody on the sensor.
Molecule B2 displayed a dissociation constant (Kd) of 0.091 nM.

In turn, B14 yielded a Kd of 0.172 nM.
